From patent US20260109774A1 (JUNO THERAPEUTICS, published 2026)
Each block holds one binder with its values, some of them ahead of it.

Assays:
[1] = target: T1, human BCMA peptide 30SNTPPLTCQR39 (human); test: CLIPS peptide array, ELISA
T1 construct: Could be recognized in a linear form
T1 peptide: SNTPPLTCQR
Experimental: (§1) Mapping was carried out using anti-BCMA scFv clones, such as those fused with mouse Fc (scFv-mFc).
(§2) Linear and conformational peptide libraries of amino acid residues 1-54 of human BCMA (set forth as amino acid residues 1-54 of SEQ ID NO:367) were generated based on a combinatorial matrix design. Linear peptides and structural mimetics including single loop, a-helix, 3-turn, combinatorial and linear disulfide bridge mimics, and discontinuous epitope mimics were used, along with positive and negative control peptides, on an amino-functionalized solid support.
(§3) Affinities for binding to the peptides in the epitope library were determined using ELISA. The peptide arrays were incubated with a solution containing the scFv overnight at 4° C. Affinity information was used in iterative screens to define the sequence and conformation of epitopes. Heat maps of affinity information for two or more loops were generated.

[2] = target: T2, human B-cell maturation antigen (BCMA) on cells (human, UniProt Q02223 1-184); test: flow cytometry on BCMA-expressing HEK293 cells vs control cells, crude lysate or bacterial supernatant; clone listed in Table E2
T2 construct: Recombinant on HEK293 or K562 cells, or endogenous on cell lines (H929, RPMI 8226, OPM2, MM1S, Daudi); also called hBCMA; huBCMA
T2 chain: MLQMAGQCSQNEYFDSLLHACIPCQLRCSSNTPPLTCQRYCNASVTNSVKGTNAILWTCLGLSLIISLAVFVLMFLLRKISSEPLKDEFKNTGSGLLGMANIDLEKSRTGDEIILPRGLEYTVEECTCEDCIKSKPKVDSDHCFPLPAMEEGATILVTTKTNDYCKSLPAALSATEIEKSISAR
Experimental: Specific binding of resulting scFv clones to BCMA-expressing HEK293 cells, as compared to control cells not expressing BCMA, was assessed by flow cytometry either with in vitro translated crude cell lysate or with bacterially-produced supernatant.

[3] = target: T2, human B-cell maturation antigen (BCMA) …; test: membrane proteome array on transfected HEK293 cells (Retrogenix)
[4] = target: T3, recombinant human BCMA-hFc (human, UniProt Q02223 1-54, biotinylated in the kinetic exclusion assay of paragraph 546); test: Biacore-based assay (SPR)
T3 construct: also called rhBCMA hFc; recombinant human BCMA fusion protein
T3 sequence: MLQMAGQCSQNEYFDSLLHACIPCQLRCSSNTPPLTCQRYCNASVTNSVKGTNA

[5] = target: T4, human BCMA amino acid residues 1-54 (linear and conformational peptide libraries) (human, UniProt Q02223 1-54); test: CLIPS peptide array, ELISA
T4 construct: Presented as CLIPS peptide arrays (linear peptides and structural mimetics) on a solid support
T4 sequence: T3 sequence
Experimental: as §1, §2, §3

[6] = target: T5, BCMA-Fc (soluble human BCMA fused at its C-terminus to an Fc region of IgG) (human, UniProt Q02223 1-54); test: flow cytometry, T cells transduced with Non-SSE construct, CD8 gate, recombinant BCMA-Fc (rBCMA) staining against surrogate marker
T5 construct: also called hBCMA-Fc; hBMCA-Fc
T5 sequence: T3 sequence
Experimental: (§4) Lentiviral constructs containing anti-BCMA CAR-encoding polynucleotides with starting and optimized sequences, respectively, as described in Example 3, were transduced into T cells and transduced cells were analyzed for transduction (based on expression of a surrogate marker) and for CAR expression based on binding to recombinant BCMA-Fc fusion protein by flow cytometry.

[7] = target: T5, BCMA-Fc (soluble human BCMA fused at …); test: flow cytometry, T cells transduced with Non-SSE construct, CD4 gate, recombinant BCMA-Fc (rBCMA) staining against surrogate marker
Experimental: as §4

[8] = target: T3, recombinant human BCMA-hFc; test: KinExA kinetic exclusion assay, CAR-expressing Jurkat cells titrated into 20 nM or 1 nM biotinylated rhBCMA hFc
[9] = target: T5, BCMA-Fc (soluble human BCMA fused at …); test: flow cytometry, T cells transduced with O/SSE construct, CD8 gate, recombinant BCMA-Fc (rBCMA) staining against surrogate marker
Experimental: as §4

[10] = target: T5, BCMA-Fc (soluble human BCMA fused at …); test: flow cytometry, T cells transduced with O/SSE construct, CD4 gate, recombinant BCMA-Fc (rBCMA) staining against surrogate marker
Experimental: as §4

[11] = target: T3, recombinant human BCMA-hFc; test: kinetics exclusion assay, CAR expressed on a Jurkat T cell line, rhBCMA hFc in solution; CAR on Jurkat cells, kinetics exclusion assay (not the scFv-Fc by Biacore)
Experimental: A CAR with a BCMA-55-derived scFv binding domain, a modified IgG-derived CH2-CH3-hinge spacer, a CD28 transmembrane domain, and 41BB and CD3zeta endodomain, was expressed in a Jurkat T cell line. Kinetics of binding by the CAR to recombinant human BCMA-hFc (rhBCMA hFc) was assessed using a kinetics exclusion assay. Affinity of binding of an Fc fusion protein containing the scFv portion of the CAR (scFv-Fc) to recombinant human BCMA fusion protein was also assessed using a Biacore-based assay.

B1: BCMA-23 scFv (scFv)
scFv: EVQLVESGGGLVKPGGSLRLSCAASGFTFSDYYMSWIRQAPGKGLEWVSYISSSGSTIYYADSVKGRFTISRDNAKNSLYLQMNSLRAEDTAVYYCAKVDGDYTEDYWGQGTLVTVSSGGGGSGGGGSGGGGSQSALTQPASVSGSPGQSITISCTGSSSDVGKYNLVSWYQQPPGKAPKLIIYDVNKRPSGVSNRFSGSKSGNTATLTISGLQGDDEADYYCSSYGGSRSYVFGTGTKVTVL
binding result [1]: binds

B2: BCMA-25 scFv (scFv)
scFv: EVQLVQSGGGLVQPGRSLRLSCTASGFTFGDYAMSWFRQAPGKGLEWVGFIRSKAYGGTTEYAASVKGRFTISRDDSKSIAYLQMNSLKTEDTAVYYCAAWSAPTDYWGQGTLVTVSSGGGGSGGGGSGGGGSDIQMTQSPAFLSASVGDRVTVTCRASQGISNYLAWYQQKPGNAPRLLIYSASTLQSGVPSRFRGTGYGTEFSLTIDSLQPEDFATYYCQQSYTSRQTFGPGTRLDIK
binding result [1]: binds | binding result [2]: binds

B3: BCMA-55 scFv-Fc fusion protein (Fc fusion, not shown: a dimerising Fc or GST)
chain: QSALTQPASVSASPGQSIAISCTGTSSDVGWYQQHPGKAPKLMIYEDSKRPSGVSNRFSGSKSGNTASLTISGLQAEDEADYYCSSNTRSSTLVFGGGTKLTVLGSRGGGGSGGGGSGGGGSLEMAEVQLVQSGAEMKKPGASLKLSCKASGYTFIDYYVYWMRQAPGQGLESMGWINPNSGGTNYAQKFQGRVTMTRDTSISTAYMELSRLRSDDTAMYYCARSQRDGYMDYWGQGTLVTVSS
notes: also called BCMA-55-Fc
binding result [3]: binds | Kd [4]: ~10 nM

B7: BCMA-55-LS CAR (other)
chain: QSALTQPASVSASPGQSIAISCTGTSSDVGWYQQHPGKAPKLMIYEDSKRPSGVSNRFSGSKSGNTASLTISGLQAEDEADYYCSSNTRSSTLVFGGGTKLTVLGSRGGGGSGGGGSGGGGSLEMAEVQLVQSGAEMKKPGASLKLSCKASGYTFIDYYVYWMRQAPGQGLESMGWINPNSGGTNYAQKFQGRVTMTRDTSISTAYMELSRLRSDDTAMYYCARSQRDGYMDYWGQGTLVTVSSESKYGPPCPPCPAPPVAGPSVFLFPPKPKDTLMISRTPEVTCVVVDVSQEDPEVQFNWYVDGVEVHNAKTKPREEQFQSTYRVVSVLTVLHQDWLNGKEYKCKVSNKGLPSSIEKTISKAKGQPREPQVYTLPPSQEEMTKNQVSLTCLVKGFYPSDIAVEWESNGQPENNYKTTPPVLDSDGSFFLYSRLTVDKSRWQEGNVFSCSVMHEALHNHYTQKSLSLSLGKMFWVLVVVGGVLACYSLLVTVAFIIFWVKRGRKKLLYIFKQPFMRPVQTTQEEDGCSCRFPEEEEGGCELRVKFSRSADAPAYQQGQNQLYNELNLGRREEYDVLDKRRGRDPEMGGKPRRKNPQEGLYNELQKDKMAEAYSEIGMKGERRRGKGHDGLYQGLSTATKDTYDALHMQALPPR
notes: Chimeric antigen receptor on T cells or Jurkat cells; also called BCMA-55-LS-O/SSE CAR; BCMA-55-LS CAR O/SSE
% of cells in Q1 (rBCMA+ marker-) [6]: 7.95% | % of cells in Q3 (rBCMA- marker+) [6]: 6.75% | % of cells in Q4 (rBCMA- marker-) [6]: 48.8% | % of cells in Q1 (rBCMA+ marker-) [7]: 8.66% | % of cells in Q3 (rBCMA- marker+) [7]: 6.35% | % of cells in Q4 (rBCMA- marker-) [7]: 40.9% | Kd [8]: ~1.46 nM | % of cells in Q1 (rBCMA+ marker-) [9]: 2.47% | % of cells in Q3 (rBCMA- marker+) [9]: 6.39% | % of cells in Q4 (rBCMA- marker-) [9]: 47.8% | % of cells in Q1 (rBCMA+ marker-) [10]: 1.9% | % of cells in Q3 (rBCMA- marker+) [10]: 4.89% | % of cells in Q4 (rBCMA- marker-) [10]: 43% | Kd [11]: ~1 nM

B8: BCMA-26 scFv (scFv)
scFv: EVQLVESGGGLVKPGGSLRLSCAASGFTFSDYYMSWIRQAPGKGLEWVSYISSSGSTIYYADSVKGRFTISRDNAKNSLYLQMNSLRAEDTAVYYCAKVDGPPSFDIWGQGTMVTVSSGGGGSGGGGSGGGGSSYVLTQPPSVSVAPGQTARITCGANNIGSKSVHWYQQKPGQAPMLVVYDDDDRPSGIPERFSGSNSGNTATLTISGVEAGDEADYFCHLWDRSRDHYVFGTGTKLTVL
binding result [5]: binds | binding result [2]: binds

Other lines, results leading:

binding result [1]: binds | binding result [2]: binds
B4: BCMA-1 scFv (scFv)
scFv: QVQLVQSGGGLVQPGRSLRLSCTASGFTFGDYAMSWFRQAPGKGLEWVGFIRSKAYGGTTEYAASVKGRFTISRDDSKSIAYLQMNSLKTEDTAVYYCAAWSAPTDYWGQGTLVTVSSGGGGSGGGGSGGGGSDIVMTQSPDSLSVSPGERATISCKSSQSVLSTSNNKNYLAWYQQKPGQPPRLLLYWASTREAGVPDRFSGSGSGTDFTLTISSLQAEDVAVYYCQQYFSSPYTFGHGTKLEIK

binding result [1]: binds | binding result [2]: binds
B5: BCMA-5 scFv (scFv)
scFv: QVQLVQSGGGLVQPGRSLRLSCTASGFTFGDYAMSWFRQAPGKGLEWVGFIRSKAYGGTTEYAASVKGRFTISRDDSKSIAYLQMNSLKTEDTAVYYCAAWSAPTDYWGQGTLVTVSSGGGGSGGGGSGGGGSDIVMTQSPDSLAVSLGERATINCKSSQSVLYSSNNKNYLAWYQQKPGQPPKLLIYWASTRESGVPDRFSGSGSGTDFTLTISSLQAEDVAVYYCQQYYSTPWTFGQGTKVDIK

binding result [5]: binds
B6: BCMA-52-scFv-mFc (Fc fusion, not shown: a dimerising Fc or GST)
chain: SYELTQPPSASGTPGQRVTMSCSGTSSNIGSHSVNWYQQLPGTAPKLLIYTNNQRPSGVPDRFSGSKSGTSASLAISGLQSEDEADYYCAAWDGSLNGLVFGGGTKLTVLGSRGGGGSGGGGSGGGGSLEMAEVQLVQSGAEVKKPGESLKISCKGSGYSFTSYWIGWVRQMPGKGLEWMGIIYPGDSDTRYSPSFQGHVTISADKSISTAYLQWSSLKASDTAMYYCARYSGSFDNWGQGTLVTVSS
notes: also called BCMA-52 scFv fused with mouse Fc

binding result [5]: binds | binding result [2]: binds
B9: BCMA-9 scFv (scFv)
scFv: EVQLVQSGGGLVKPGGSLRLSCAASGFTFSDYYMSWIRQAPGKGLEWVSYISSSGSTIYYADSVKGRFTISRDNAKNSLYLQMNSLRAEDTAVYYCARVDGDYVDDYWGQGTLVTVSSGGGGSGGGGSGGGGSSYELTQPPSVSVAPGQTARVTCGANNIGSKSVHWYQQKPGQAPMLVVYDDDDRPSGIPERFSGSNSGNTATLTISGVEAGDEADYFCHVWDRSRDHYVFGTGTKLTVL
